Test results published in paper PMC8858996 (iScience, 2022).
Blank lines part the entries; values can stand above or below the molecule they belong to.

How the values were obtained:
dimer (4) = experiment: ITC
CGA-WLA-YRPK dimer (5) = experiment: ITC
CGA-WLA-YR dimer (N-ter) = experiment: ITC
[1] = target: EphA2 WT tagged at the C-terminus with mTURQ or EYFP (UniProt P29317)
FRET or BRET = target: the molecule itself; experiment: FRET or BRET

Kd (dimer (4)): 104 nM
stoichiometry N (EphA2 LBD per peptide) (dimer (4)): 2
Kd (CGA-WLA-YRPK dimer (5)): 21 nM
Molecule: human EphA2 LBD (residues 28–200) (from UniProt P29317 28-200) (domain or fragment)

stoichiometry N (CGA-WLA-YR dimer (N-ter)): 2
Molecule: human EphA2 ligand-binding domain (residues 28-200) (from UniProt P29317 28-200) (domain or fragment)

EC50 of EphA2 autophosphorylation on Y588, endogenous EphA2 in PC3 cells, 15 min [1]: 3.8 nM
Molecule: ephrinA1-Fc (ephrinA1 extracellular region fused to the dimeric Fc portion of an antibody) (Fc fusion)

B1: EphA2 L223R/L254R/V255R tagged at the C-terminus with mTURQ or EYFP (receptor)
chain: AQGKEVVLLDFAAAGGELGWLTHPYGKGWDLMQNIMNDMPIYMYSVCNVMSGDQDNWLRTNWVYRGEAERIFIELKFTVRDCNSFPGGASSCKETFNLYYAESDLDYGTNFQKRLFTKIDTIAPDEITVSSDFEARHVKLNVEERSVGPLTRKGFYLAFQDIGACVALLSVRVYYKKCPELLQGLAHFPETIAGSDAPSRATVAGTCVDHAVVPPGGEEPRMHCAVDGEWRRPIGQCLCQAGYEKVEDACQACSPGFFKFEASESPCLECPEHTLPSPEGATSCECEEGFFRAPQDPASMPCTRPPSAPHYLTAVGMGAKVELRWTPPQDSGGREDIVYSVTCEQCWPESGECGPCEASVRYSEPPHGLTRTSVTVSDLEPHMNYTFTVEARNGVSGLVTSRSFRTASVSINQTEPPKVRLEGRSTTSLSVSWSIPPPQQSRVWKYEVTYRKKGDSNSYNVRRTEGFSVTLDDLAPDTTYLVQVQALTQEGQGAGSKVHEFQTLSPEGSGNLAVIGGVAVGVVLLLVLAGVGFFIHRRRKNQRARQSPEDVYFSKSEQLKPLKTYVDPHTYEDPNQAVLKFTTEIHPSCVTRQKVIGAGEFGEVYKGMLKTSSGKKEVPVAIKTLKAGYTEKQRVDFLGEAGIMGQFSHHNIIRLEGVISKYKPMMIITEYMENGALDKFLREKDGEFSVLQLVGMLRGIAAGMKYLANMNYVHRDLAARNILVNSNLVCKVSDFGLSRVLEDDPEATYTTSGGKIPIRWTAPEAISYRKFTSASDVWSFGIVMWEVMTYGERPYWELSNHEVMKAINDGFRLPTPMDCPSAIYQLMMQCWQQERARRPKFADIVSILDKLIRAPDSLKTLADFDPRVSIRLPSTSGSEGVPFRTVSEWLESIKMQQYTEHFMAAGYTAIEKVVQMTNDDIKRIGVRLPGHQKRIAYSLLGLKDQVNTVGIPI
stoichiometry N (FRET or BRET): 2
